{
  "source": "paper PMC3678999",
  "about": "“A Structural Basis for IκB Kinase 2 Activation Via Oligomerization-Dependent Trans Auto-Phosphorylation” (PLoS Biology, 2013)",
  "binders": {"B1": {"name": "human IKK2 (amino acids 1–700), constitutively active S177E/S181E (domain or fragment, UniProt O14920 1-700, looked up)", "chain": "MSWSPSLTTQTCGAWEMKERLGTGGFGNVIRWHNQETGEQIAIKQCRQELSPRNRERWCLEIQIMRRLTHPNVVAARDVPEGMQNLAPNDLPLLAMEYCQGGDLRKYLNQFENCCGLREGAILTLLSDIASALRYLHENRIIHRDLKPENIVLQQGEQRLIHKIIDLGYAKELDQGELCTEFVGTLQYLAPELLEQQKYTVTVDYWSFGTLAFECITGFRPFLPNWQPVQWHSKVRQKSEVDIVVSEDLNGTVKFSSSLPYPNNLNSVLAERLEKWLQLMLMWHPRQRGTDPTYGPNGCFKALDDILNLKLVHILNMVTGTIHTYPVTEDESLQSLKARIQQDTGIPEEDQELLQEAGLALIPDKPATQCISDGKLNEGHTLDMDLVFLFDNSKITYETQISPRPQPESVSCILQEPKRNLAFFQLRKVWGQVWHSIQTLKEDCNRLQQGQRAAMMNLLRNNSCLSKMKNSMASMSQQLKAKLDFFKTSIQIDLEKYSEQTEFGITSDKLLLAWREMEQAVELCGRENEVKLLVERMMALQTDIVDLQRSPMGRKQGGTLDDLEEQARELYRRLREKPRDQRTEGDSQEMVRLLLQAIQSFEKKVRVIYTQLSKTVVCKQKALELLPKVEEVVSLMNEDEKTVVRLQEKRQKELWNLLKIACSKVRGPVSGSPDSMNASRLSQPGQLMSQPSTASNSLPE", "notes": "human IκB kinase 2 (IKK2/IKKβ), amino acids 1–700 (amino acid 701 mutated to a stop codon), with S177E/S181E; Hexagonal crystal form, data to 7 Å; no PDB entry is named for it; also called hIKK2EE 1–700; hIKK2EE(1–700); source: Sf9 (baculovirus), purified (Ni-NTA, TEV, Superdex200); not shown: His6, N-terminal, cleaved"}, "B2": {"name": "human IKK2 (amino acids 11–669), constitutively active S177E/S181E (domain or fragment, UniProt O14920 11-669, looked up)", "chain": "TCGAWEMKERLGTGGFGNVIRWHNQETGEQIAIKQCRQELSPRNRERWCLEIQIMRRLTHPNVVAARDVPEGMQNLAPNDLPLLAMEYCQGGDLRKYLNQFENCCGLREGAILTLLSDIASALRYLHENRIIHRDLKPENIVLQQGEQRLIHKIIDLGYAKELDQGELCTEFVGTLQYLAPELLEQQKYTVTVDYWSFGTLAFECITGFRPFLPNWQPVQWHSKVRQKSEVDIVVSEDLNGTVKFSSSLPYPNNLNSVLAERLEKWLQLMLMWHPRQRGTDPTYGPNGCFKALDDILNLKLVHILNMVTGTIHTYPVTEDESLQSLKARIQQDTGIPEEDQELLQEAGLALIPDKPATQCISDGKLNEGHTLDMDLVFLFDNSKITYETQISPRPQPESVSCILQEPKRNLAFFQLRKVWGQVWHSIQTLKEDCNRLQQGQRAAMMNLLRNNSCLSKMKNSMASMSQQLKAKLDFFKTSIQIDLEKYSEQTEFGITSDKLLLAWREMEQAVELCGRENEVKLLVERMMALQTDIVDLQRSPMGRKQGGTLDDLEEQARELYRRLREKPRDQRTEGDSQEMVRLLLQAIQSFEKKVRVIYTQLSKTVVCKQKALELLPKVEEVVSLMNEDEKTVVRLQEKRQKELWNLLKIACSKVRGPV", "notes": "human IκB kinase 2 (IKK2/IKKβ), amino acids 11–669, with S177E/S181E; Cloned in pFastBacHTb (N-terminal hexa-histidine tag, TEV site); Incubated with ATP/MgCl2 before the size exclusion column; also called IKK2(11–669)EE; hIKK2EE(11–669); source: Sf9 (baculovirus), purified (Ni-NTA, TEV, Superdex200); not shown: His6, N-terminal, cleaved"}, "B3": {"name": "His-tagged full-length human IKK2, O14920 1-756 (enzyme)", "chain": "MSWSPSLTTQTCGAWEMKERLGTGGFGNVIRWHNQETGEQIAIKQCRQELSPRNRERWCLEIQIMRRLTHPNVVAARDVPEGMQNLAPNDLPLLAMEYCQGGDLRKYLNQFENCCGLREGAILTLLSDIASALRYLHENRIIHRDLKPENIVLQQGEQRLIHKIIDLGYAKELDQGSLCTSFVGTLQYLAPELLEQQKYTVTVDYWSFGTLAFECITGFRPFLPNWQPVQWHSKVRQKSEVDIVVSEDLNGTVKFSSSLPYPNNLNSVLAERLEKWLQLMLMWHPRQRGTDPTYGPNGCFKALDDILNLKLVHILNMVTGTIHTYPVTEDESLQSLKARIQQDTGIPEEDQELLQEAGLALIPDKPATQCISDGKLNEGHTLDMDLVFLFDNSKITYETQISPRPQPESVSCILQEPKRNLAFFQLRKVWGQVWHSIQTLKEDCNRLQQGQRAAMMNLLRNNSCLSKMKNSMASMSQQLKAKLDFFKTSIQIDLEKYSEQTEFGITSDKLLLAWREMEQAVELCGRENEVKLLVERMMALQTDIVDLQRSPMGRKQGGTLDDLEEQARELYRRLREKPRDQRTEGDSQEMVRLLLQAIQSFEKKVRVIYTQLSKTVVCKQKALELLPKVEEVVSLMNEDEKTVVRLQEKRQKELWNLLKIACSKVRGPVSGSPDSMNASRLSQPGQLMSQPSTASNSLPEPAKKSEELVAEAHNLCTLLENAIQDTVREQDQSFTALDWSWLQTEEEEHSCLEQAS"}},
  "key": {"[1]": {"biological_target": "the molecule itself", "test": "crystal structure; hexagonal crystal form, data to 7 Å; molecular replacement with the hIKK2EE(11–669) model and rigid body refinement, called a probable solution; protein mixed with inhibitor MLN120B"}, "[2]": {"biological_target": "the molecule itself", "test": "crystal structure; tetragonal crystal form, space group P4(1)22, six protomers in the asymmetric unit; protein mixed with inhibitor MLN120B 1:2; sodium malonate pH 6.5, 18°C"}, "[3]": {"biological_target": "T1, His-tagged full-length human IKK2 (human), O14920", "T1 chain": "B3 chain", "test": "AUC; sedimentation velocity, ~0.5 mg/ml, 30,000 rpm, 20°C, 15 h; Sedfit", "settings": "remark: other sources report otherwise"}, "[4]": {"biological_target": "T1, His-tagged full-length human IKK2 …", "test": "SEC-MALS; SEC-MALLS; protein pretreated with 1 mM ATP, concentrated as for crystallization; Zenix SEC-300 column, 20 mM Tris-Cl pH 8, 150 mM NaCl, 5% glycerol", "settings": "remark: other sources report otherwise"}},
  "note": "“And” between values parts separate entries of the source, which are not always exact repeats. Equal values may be shown once.",
  "data": [
    {"binder": "B1", "values": [
      {"measurement": "stoichiometry N", "setting": "[1]", "result": 2}
    ]},
    {"binder": "B2", "values": [
      {"measurement": "stoichiometry N", "setting": "[2]", "result": "2 and 4"}
    ]},
    {"binder": "B3", "values": [
      {"measurement": "stoichiometry N", "setting": "[3]", "result": "4 and 6 and 8"},
      {"measurement": "stoichiometry N", "setting": "[4]", "result": 4}
    ]}
  ]
}
